From paper PMC3618615 (Nature structural & molecular biology, 2013)

Biological target: T1, EYA2 Eya domain (EYA2ED) (human, UniProt O00167-1 253-538)
T1 sequence: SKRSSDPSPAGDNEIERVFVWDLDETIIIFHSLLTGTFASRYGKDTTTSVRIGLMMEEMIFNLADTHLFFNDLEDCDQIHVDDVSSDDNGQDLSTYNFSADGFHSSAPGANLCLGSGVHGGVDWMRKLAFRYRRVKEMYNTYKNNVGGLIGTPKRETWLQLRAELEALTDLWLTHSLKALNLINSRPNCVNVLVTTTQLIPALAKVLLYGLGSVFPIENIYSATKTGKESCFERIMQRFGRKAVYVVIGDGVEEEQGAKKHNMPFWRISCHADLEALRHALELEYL
Experiment: crystal structure

binding result: binds
B1: MBP-SIX1 (human SIX1 residues 1-189 fused to MBP_B) (domain or fragment, UniProt Q15475 1-189, looked up)
chain: MSMLPSFGFTQEQVACVCEVLQQGGNLERLGRFLWSLPACDHLHKNESVLKAKAVVAFHRGNFRELYKILESHQFSPHNHPKLQQLWLKAHYVEAEKLRGRPLGAVGKYRVRRKFPLPRTIWDGEETSYCFKEKSRGVLREWYAHNPYPSPREKRELAEATGLTTTQVSNWFKNRRQRDRAAEAKEREN
